From publication PMC8264304

System: MexR (CSP18) (Pseudomonas aeruginosa clinical isolate CSP18)
Test: MST
Settings: MST: 10 mM Tris, 1 mM DTT, room temperature

Q: mexR-mexA intergenic region was tested. Which Kd did it give?
A: The Kd was 1100 nM.
